Test: soluble on expression in E. coli; label from the status in PepcDB or PDB records
With “MHHHHHHVMIMKAFISENVRGIYAFDENGNLIEKRYFTDKPEKVLDQLLKGEITKDLEELLNSLKEKGYDEFVFEHPELSRRAKELGFSATTEFPNIAGERLRSNPEEFLGENWFEEYYKVGVALTRMRIQEQSGARDKMVIQAIEALDDVDKVINLLVARLREWYSLHFPELDELLPKHPQYVAFVKTVGHRDNINEEVLRELGLSEEKIKKILEAKEKTMGAWMDQTDIEVVRQLAEEIDRLYQLRKKLEDYIDRAMDDVAPNLKALVGAKLAARLISLAGGLRELAMMPSSTIQVLGAEKALFRHLRTGAKPPKHGVIYQYPAINRSPWWQRGKIARALAGKLAIAARVDYFSGEYIAEELKKELEARIREIK” the “soluble on expression in E. coli” value was “soluble”. With “MHHKAKVIGMLKETIRSGDWKGEKHVPVIEYEREGDLVKVEVSVGKEIPHPNTPEHHIAWIELYFHPEGGQFPILVGRVEFTNHSDPLTEPRAVFFFKTSKKGKLYALSYCNIHGLWENEVQLE” the “soluble on expression in E. coli” value was “soluble”. With “MHLRTYYPTVVLSDIHLGTQHSKTEEVTHFLKSINCDRLILNGDIIDGWHLQKSGLGKWKAKHTDFFKVIMKMMENFGTQVIYVRGNHDDFLDNLAPLNFYNIRIVKDCIYESHGRRYYVTHGDIFDTVTTQMKWLAKLGDTGYTFLLWLNKVYNLRRMKQGKPYYSLSQSIKNRVKTAVSYISDFEKELVGLARAKKCDGVICGHIHHPANTFYEDIHYLNSGDWVETLSALTEDEDGNWTIRYFDSGLLKEDNHKEKQTISITIAS” the “soluble on expression in E. coli” value was “not soluble”. With “MHNLVPAPKQTQSVLIKNATVHTVIQGVLTNTDVLIENGKISALGPQLSTNTTASTQVVDASGKHLYPGLIALDTSLGLEHHHHHH” the “soluble on expression in E. coli” value was “not soluble”. For “MHPFYTRAATMIGEIAAAVSFISKFLRTKGLTSERQLQTFSQSLQELLAEHYKHHWFPEKPCKGSGYRCIRINHKMDPLIGQAAQRIGLSSQELFRLLPSELTLWVDPYEVSYRIGEDGSICVLYEASPAGGSTQNSTNVQMVDSRISCKEELLLGRTSPSKNYNMMTVSG”, the “soluble on expression in E. coli” value was “soluble”. With “MHPGIDSMSSNINCENNPFSFYGNPHKSVIIHGKEGTELLKEKGEDCKTFENSQQYFLWCCVQQQMYHYQLLSTAFASYGFEPPRIPGAFPHHIPPIFNGSMKCLRDREVFNQSGFLYVNVSPDTYQETRQEAPVEQRNQWSEKSKTTSKKSICKVLFECTNSSLLENAENRSIFSKQGSGSHVGENSKNPSEDSGQSGRLSQNATAEHNVLEKHLQEEYQMAKNTVNESFDSLKECSAASVIKGSYLLSQVVHIPEDAIEPEIPPDLQGPGGHVFLRMLSRSWRQYKRALEHNE” the “soluble on expression in E. coli” value was “not soluble”. For “MHPRSKLSQAQRELAVDLFEEGYGSRAVANRLGVRREQVRHLEDRFRLHGRLCLVSKRTKRQYSFDTKMEILRRHKAGELKSDLAKEYGLSSPALINHWVWQVNKGGPDALRPKPKGRPKSSARPAPVTEEDKLRRENELLKAEVAYLKKLRDLRDQRRGLEHHHHHH”, the “soluble on expression in E. coli” value was “not soluble”. For “MHQQIIKFWFEELTPQNWFENNPELDKHIASRFASVLEQAARCELFNWRDSAQGRLAEIIVLDQFSRNVYRNTPKAFAQDPLALALAQEAIRLGHDQELAPEQLSFLYMPFMHSESRLIHVEAEKLFRASGLENNYDFELKHKAIIDQFGRYPHRNAILGRESTPEELAFLQQPGS”, the “soluble on expression in E. coli” value was “soluble”. With “MHQVYVDIIVDAIIEQYQTEENFYSAYQIQAADWQAWKEGQFGLDNEVMQKIKNLFTDYEWMLTQKILRQTILFPEKRNLAVSEYKRLKTTIAKKWLQSDLGVVELIPNNKQEQEIAAGYIDLKVTLAYGEWGFDDIITFRLPATIQRQLEGSKVELLDWVNENLMDTYVGE” the “soluble on expression in E. coli” value was “not soluble”. With “MHRHVVTKVLPYTPDQLFELVGDVDAYPKFVPWITGMRTWNGRVDGAVSTVDAEAQVGFSFLREKFATRKRRDKDARSIDVSLLYGPFKRLNNGWRFMPEGDATRVEFVIEFAFKSALLDAMLAANVDRAAGKLIACFEARAQQLHGALEHHHHHH” the “soluble on expression in E. coli” value was “soluble”. In the case of “MHRTARNFAEIKPNLLFRKAKMARKSAEKYVAKKIQVPELQGEALFGLHSVLEAIRSGKRDFHSVFLKKAVENRADSDARIKEILSRIDELGIQKTLLTDDQLDRLTEFQLHNGICMDASALQFSNFEPKTVSIFVDKVLDPGNLGAIGRSAWYFGADGLGLVKGRGPKSITPAMIKSSCGALEHLPVQQFLNFNEFRDKIKAAGGELVATCDPGAAEKAGISAKSLDQWTPEKPVGIVLGDEGVGISRGILNLCDTVISISPVRKDGSNVTSLNVSVVAGILLHHISLQNRTN”, the “soluble on expression in E. coli” value is reported as “not soluble”. In the case of “MHVFYSEERRGNLLILREGEVKHFRVRRIEKDEEFGVIHEGKIYVCKVRREDKREISCEIVEELETKLPPKDITLYQSVTVDLKTMDTIVRQATELGVLTFVPIISERSFQKEEAILKKTEKWKRIVIEAMKQSRRPIPMEIKKPVRLSDLIPESEENIILDNFYEGVKPKDVNLEAKTYSVVVGPEGGFSKRESQILREKGFKSVLLEPYTLRTETAVVSIVSILMNFLEHHHHHH”, the “soluble on expression in E. coli” value is reported as “soluble”. With “MHVLDLFKIEGKTAIVTGGGRGLGEQIAVGLAEAGANVVVCSRKVEACEQVKEKLEQLGVRSLALRCDVTNPEEVKHVVETTVKEFGGIDILVNNSGATWGAPVEEMPLEAWQKVINVNVTGTFLMSQAVGKVMIAKQTGGSIINIASVAGLGGTHPDILNTIGYNTSKGAVITFTRDLAAKWGKHGIRVNAVAPGFFPTKMSKVVLERVGKKVLEHTPLGRFGGEDDLKGAVLFLASPASAFVTGALLVVDGGSHATGI” the “soluble on expression in E. coli” value was “soluble”. In the case of “MIAGPLGRASELHRYEGNQTVVFCAGGVGLPPVYPIMREHLRLGNHVTLISGFRAKEFLFWTGDDERVGKLKKEFGDQLSLIYTTNDGSYGVKGFVTGPLEEMMKANQEGKGRSIAEVIAIGPPLMMRAVSDLTKPYGVKTVASLEHHHHHH”, the “soluble on expression in E. coli” value is reported as “not soluble”. In the case of “MIAHSVDDPFYYLHNFRQVVLWVEQRYQDLLDDQELAFIRAFSQLQAPAQALMVRMVMRKGELFRSDRLDYAEIGDTALALQPLLALGWVREPEQLDLEQLFALLRKEELARCFARQLNRPRAAKHELLAQLQPLALAARSLVEWFPDSDVRILQWCLQPLCDRIRLLFFGNLYQDWSDFVLADLGLLRYEQVPFSPDSRALQQRDDVDLAMALHHCAERLEQGGDPLPILATLQGLHSSNPWLARRHARLQFAVGQQCERLGEWDLATAVYAQCNHPQARIRQVRVLERSEQWHQAHARALQLAAAPANALEEQALQRMLPRLARKLGGPPQRRQRTTPLELIELELPRGDAALGVEEAVRQHLMQEGGQAHYVENTLFNSLFGLLCWEAIFAPVPGAFFNPFQAAPQDLHDSDFQQRRSALFERCLGRLDEGSHRQAILDCYVAKQGLQSPFVSWSMLSEELLEQALACLPAAALKQCFLRLLQDIRSNRAGMPDLIQFWPEQGRYRMVEVKGPGDRLQDNQLRWLAFCRQHGLPVAVCHVRWSET”, the “soluble on expression in E. coli” value is reported as “not soluble”. For “MIAIVAGNSAGVSRVANQPLEHEPSYWAATAEIEQPSPALEHDLDVDVAIIGAGYTGLSTAYHLKKDHGITATVVEANRIGWGCSGRNGGFAMIGVGKDTYNAWISKVGLEQARKTFEFGRDAVRTLRTVLQENNINAASGNEGFLLTAHRRARISELIETQRQLKHYFGFDTEYLDAHDVRTHYLSGTQIFGALHYPEHFPIHPMRYAQGLGRRVRQLGVPIYENSPVNTWRRAGRLHELLTPRGVVRAKKVVIATNGYTPDGLHPIVRGRLMNVLSNIVVTAPLSEGQLAATRWQTHKMVVDTRNLRSYFRLLEDNRIMFGARGGISDTAASRATMKAWLLTQLAKQFPGLGAIGADYFWQGWVAIPRDKGPHIHVADNGSVAYWLGCTGTGVAMSTHAGKLLADSLATERRPDVPALVGAPLPRYEIPALRKLYQRAAYSYFYLKDEFLLEHHHHHH”, the “soluble on expression in E. coli” value was “not soluble”. With “MIAQQFNRARHILRHNLVRPFYQPKFYLESGKLAGFEALLRWYDEDNQIQLPKLIINAFEDYSLASRLSEKMQLNIFKDMASWINQGLQLVPVSINAAPVEFLKDNYAELLLERLNQFEIPYHLIEIEITEHLLDDQGKNFISRALAKLKQNGIRIALDDFGTGHSSLTRLANLPVDCLKIDCDFVQRMEQEKFISALVQSVILMSNNLGIDVVAEGIESQEQLELLKQQGCEVGQGFLFSQA” the “soluble on expression in E. coli” value was “not soluble”. With “MIAVQRAVESRSIPPKAIVPVYVATSRMIQNNYSQPYGAERSNKVHYNRVDVGIPQKHVKGVVETNAYKPTHDKYFAAVALQKYDNKEQFKQQLNADLEKKTPGKREIFLFIHGYNNNFADGTFRTAQFTYDYSLNVVTVHYSWPSAGSVPLYIYDRDSANFARDGLIELLTLISETKADQISVIAHSMGNFVIMEAFRTLALQGKYKPIQRITSFLMAAPDIDIDVFERQLNDIKKLPQPTAILVSRADKALAVSGRLTGGHHRVGDGSDIEMLRKNGIAVLDFSNVDGGAHNVFASSPTLMALAREGSLASTIMQGTELSPSQALLADSSSVLEKTTHLILYTPLRLLSPLTRQ” the “soluble on expression in E. coli” value was “not soluble”. For “MICFCAERFQWRRLWQIPGDLLFPGPADMARALLYRRPTEPSTIPVRHGSQFFAVRIRRHRRARRYTLRIHPSDREAILTMPPRGTLADAKEFAQRHGAWIAARLGRLPKAAPFLPGTLVPLRGHDHKIVHRTGRGTVWTEVRESGEKILCVAGETEHIERRVLDFLKREARKDLQKACDRYAPELGVKVTRLSIRDQSSRWGSCTSAGSLSFSWRLILAPSYVLDYLAAHEVAHLVEMNHSARFWRVVGKVCPQMERAKTWLDSYGNDLHRYGISDLEHHHHHH”, the “soluble on expression in E. coli” value was “soluble”. With “MICHQCPDRHDSLEEETMNAYSPPTLLQLARQKLLREEALAISALKDLPRELLPEMFEEAFTDECTKTLRAMIPMWPFPCLPVGTLIKNPNLETLKAVLEGLDILLAPKVRSSRCKLRVLNLRNEHHEFWRIWAGSHEDECLPQLTQKQPVENSPDCGVKKHLQVTTDFELTKGRLDESATYLLQWAEQRKDSIHLCCRKLQIQGLSKDAFIEIFKIIDANCVQELELSCIWEEELPFLNPYLRQMKNLLTLKLDDITEVTMDGDDLFDEKKRRKLISQLFSFYCLQNLYVDGTFAEGNMIECLRYLKKPLETLCLRYCFLSQTDLDYLPHCLNICKLKHLSLSYIYLFNLFLEPLGILLERVRDTLQTLELQLCGLTDRHFSVLLPALSQCSHLTKINFYENTISLPVLKQLSYHTANLSQLTQEQYPAPQECYDNMRGVETHRLGNICTELLDILRAKRQPERVAFATSRCIKCRGFLVYDLETQRCFFQH” the “soluble on expression in E. coli” value was “not soluble”. With “MIDERLKKDLAILPISTVRALTNLSDRQIRYYESQDLLTTKRGKGGQRRFSLNDVERLIEIRMMMESGDSLKDIHNLYETHRVSNRRNEKTEFVHSLENEFLKIGRLEKH” the “soluble on expression in E. coli” value was “not soluble”. With “MIDLHTHTIFSDGELIPSELVRRAVIHGYEAIALTDHADYTNLEQLLDAAKKAKYLEEEWDIRVLSGVELTHVPPRKIAPMAKKAKELGAEIVVVHGETISEPVAQGTNAASAACEYVDILAHPGLISEEDVRTAAENNVFLELTARNGHNRTNGHVARLALEFGATLVVNTDTHAPENLITDETALKIAMGAGL” the “soluble on expression in E. coli” value was “not soluble”. With “MIDLSTEFAGLRLKNPIVAASSGLTRNLKTIKDLEAAGVAAIVLKSLFEEQIEAEMSQMMSPMDYPEAADYINAYVQSNEISKHLDFLREVKREVAIPVIASINCFRSDSWVDFAKQFEEAGADALEINVMRLNTDLFFDANKAEQMYVDIISSLIKAIRIPVVVKLSKSFANIPSLVDKLRAAGAKGVVLFNRSYQPDIDIDKVQMVAGDVFTSAGEISDTIRH” the “soluble on expression in E. coli” value was “not soluble”. In the case of “MIDVLLGADDGSLAFVPSEFSCSPGCKIVFKNNAGFPHNIVFDEDSIPSGVDASKISMSEEDLLNAKGETFEVALSNKGEYSFYCSPHQGAGMVGKVTVN”, the “soluble on expression in E. coli” value is reported as “soluble”.
